Reference: the supplement of paper PMC10065799, “High-throughput profiling of sequence recognition by tyrosine kinases and SH2 domains using bacterial peptide display” (eLife, 2023)

biological target: FGFR3 (UniProt P22607); assay: phosphorylation enrichment, bacterial display (enrichment ratio); higher = better substrate or ligand; peptides without Tyr show the background
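Also: 11-residue human phosphosite peptides and single-mutation variants displayed on the E. coli surface, counted by deep sequencing, each peptide's frequency after selection divided by its frequency in the unselected input library; frequency after pTyr selection over input frequency; kinase dosed for 20-30% of maximal phosphorylation in three min.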

Chain of FGFR3 (P22607 whole entry, looked up): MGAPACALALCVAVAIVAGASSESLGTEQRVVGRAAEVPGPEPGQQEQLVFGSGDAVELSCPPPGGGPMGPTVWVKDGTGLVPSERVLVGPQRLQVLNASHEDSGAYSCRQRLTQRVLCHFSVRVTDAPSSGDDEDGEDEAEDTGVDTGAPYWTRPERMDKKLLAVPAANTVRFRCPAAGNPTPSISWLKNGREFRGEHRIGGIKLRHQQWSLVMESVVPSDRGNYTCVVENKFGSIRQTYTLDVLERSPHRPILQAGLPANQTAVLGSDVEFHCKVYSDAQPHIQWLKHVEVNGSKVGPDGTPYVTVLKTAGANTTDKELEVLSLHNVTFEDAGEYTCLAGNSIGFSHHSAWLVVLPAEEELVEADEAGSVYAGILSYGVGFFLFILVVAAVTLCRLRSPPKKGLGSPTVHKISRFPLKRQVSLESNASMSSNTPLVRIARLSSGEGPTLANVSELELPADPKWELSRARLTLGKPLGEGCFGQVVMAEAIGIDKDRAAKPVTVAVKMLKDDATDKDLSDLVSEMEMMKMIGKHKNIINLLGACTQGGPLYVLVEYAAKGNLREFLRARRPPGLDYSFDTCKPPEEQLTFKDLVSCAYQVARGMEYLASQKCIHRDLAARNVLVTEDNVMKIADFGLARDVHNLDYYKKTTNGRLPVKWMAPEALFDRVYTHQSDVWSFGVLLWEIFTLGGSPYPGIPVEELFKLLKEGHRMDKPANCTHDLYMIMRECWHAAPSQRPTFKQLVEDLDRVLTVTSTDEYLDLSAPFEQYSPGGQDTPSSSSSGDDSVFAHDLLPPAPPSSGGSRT

| Sequence | phosphorylation enrichment |
| --- | --- |
| VVLEDYLDIKN [CLCNKB_Y138] | 0.608 |
| SPPPAFTPMSG [ERBB4_Y1056_Y1056F] | 0.465 |
| HSDYQYSQRSQ [PKP2_Y168] | 0.377 |
| VRQQVYKKVEE [HADHA_Y283] | 0.536 |
| FPHVIYARLWR [SMAD4_Y95] | 0.648 |
| HVSISYDIPLT [GAB1_Y307_P311L] | 1.53 |
| RELGEYPLAEY [ALDH1A3_Y492_A493P] | 0.685 |
| RLAQRYLIWEC [SCN5A_Y694] | 0.841 |
| EPFEVYRIVPE [IRF8_Y110_K108E_YF] | 1.03 |
| SFNNKYGMVAQ [APOB_Y276_K273N_YF] | 0.469 |
| QGCSIYKDYYR [PLA2G2D_Y82] | 1.57 |
| TTPGPYRSIYF [MPG_Y71] | 0.515 |
| PYRQWYESHYA [RPS8_Y113] | 1.1 |
| GMTRNYIIFIE [BCO2_Y294] | 0.745 |
| IKIMGSSIRTI [IDS_Y490_Y490S] | 0.45 |
| IKRIDYEFVEM [ADA_Y84_A83D] | 0.742 |
| LTNDRYVATLT [IL6ST_Y396_L397V] | 0.82 |

| Sequence | phosphorylation enrichment |
| --- | --- |
| GTCGGYCSVLG [RAB18_Y202_A198T] | 0.488 |
| VRFVDYVLFRS [FAM189B_Y361_S358F] | 1.65 |
| MALDRYVAICK [OR2B11_Y127] | 0.604 |
| MTKEQYIKMNQ [ARFGEF2_Y797_R802Q] | 0.637 |
| NIFSFYLSRDP [CTSD_Y232] | 0.697 |
| FGTAQYCCRMG [LRRK2_Y2023_I2020T_YF] | 0.517 |
| KKHFSYAWPFY [BRDT_Y291] | 0.564 |
| DGTGHYLGNAC [GATA5_Y208_C210G] | 0.474 |
| LSSNLYYRWLT [CNGA3_Y168_P163L] | 17.8 |
| MCDSHYLESRS [CLK1_Y56] | 0.718 |
| GGQEDYDRLRP [RAC3_Y64_A59G] | 0.624 |
| ECKASCPGKIT [PRSS3_Y232_Y232C] | 0.44 |
| LLKMMYLMLDN [STAT1_Y203_K201M] | 0.902 |
| NHFKIYNPCAE [PTEN_Y68_L70P_YF] | 0.676 |
| IKKFKYRIEEH [GJA1_Y137_G138R] | 0.495 |
| GRFSGYKSKHG [EPHA3_Y570_C568S] | 0.392 |

test system: Fer (mouse); assay: as above

| Sequence | phosphorylation enrichment |
| --- | --- |
| VVLEDYLDIKN [CLCNKB_Y138] | 0.391 |
| SPPPAFTPMSG [ERBB4_Y1056_Y1056F] | 0.439 |
| HSDYQYSQRSQ [PKP2_Y168] | 0.365 |
| VRQQVYKKVEE [HADHA_Y283] | 0.331 |
| FPHVIYARLWR [SMAD4_Y95] | 0.539 |
| HVSISYDIPLT [GAB1_Y307_P311L] | 1.12 |
| RELGEYPLAEY [ALDH1A3_Y492_A493P] | 0.593 |
| RLAQRYLIWEC [SCN5A_Y694] | 0.546 |
| EPFEVYRIVPE [IRF8_Y110_K108E_YF] | 0.411 |
| SFNNKYGMVAQ [APOB_Y276_K273N_YF] | 0.399 |
| QGCSIYKDYYR [PLA2G2D_Y82] | 0.724 |
| TTPGPYRSIYF [MPG_Y71] | 0.54 |
| PYRQWYESHYA [RPS8_Y113] | 10.9 |
| GMTRNYIIFIE [BCO2_Y294] | 0.447 |
| IKIMGSSIRTI [IDS_Y490_Y490S] | 0.387 |
| IKRIDYEFVEM [ADA_Y84_A83D] | 1.82 |
| LTNDRYVATLT [IL6ST_Y396_L397V] | 0.408 |

| Sequence | phosphorylation enrichment |
| --- | --- |
| GTCGGYCSVLG [RAB18_Y202_A198T] | 0.389 |
| VRFVDYVLFRS [FAM189B_Y361_S358F] | 0.458 |
| MALDRYVAICK [OR2B11_Y127] | 0.499 |
| MTKEQYIKMNQ [ARFGEF2_Y797_R802Q] | 0.399 |
| NIFSFYLSRDP [CTSD_Y232] | 0.528 |
| FGTAQYCCRMG [LRRK2_Y2023_I2020T_YF] | 0.499 |
| KKHFSYAWPFY [BRDT_Y291] | 0.385 |
| DGTGHYLGNAC [GATA5_Y208_C210G] | 0.4 |
| LSSNLYYRWLT [CNGA3_Y168_P163L] | 8.47 |
| MCDSHYLESRS [CLK1_Y56] | 0.473 |
| GGQEDYDRLRP [RAC3_Y64_A59G] | 0.522 |
| ECKASCPGKIT [PRSS3_Y232_Y232C] | 0.453 |
| LLKMMYLMLDN [STAT1_Y203_K201M] | 0.603 |
| NHFKIYNPCAE [PTEN_Y68_L70P_YF] | 0.442 |
| IKKFKYRIEEH [GJA1_Y137_G138R] | 0.361 |
| GRFSGYKSKHG [EPHA3_Y570_C568S] | 0.278 |

biological target: Fes (UniProt P07332); assay: as above
Sequence (P07332 whole entry, looked up): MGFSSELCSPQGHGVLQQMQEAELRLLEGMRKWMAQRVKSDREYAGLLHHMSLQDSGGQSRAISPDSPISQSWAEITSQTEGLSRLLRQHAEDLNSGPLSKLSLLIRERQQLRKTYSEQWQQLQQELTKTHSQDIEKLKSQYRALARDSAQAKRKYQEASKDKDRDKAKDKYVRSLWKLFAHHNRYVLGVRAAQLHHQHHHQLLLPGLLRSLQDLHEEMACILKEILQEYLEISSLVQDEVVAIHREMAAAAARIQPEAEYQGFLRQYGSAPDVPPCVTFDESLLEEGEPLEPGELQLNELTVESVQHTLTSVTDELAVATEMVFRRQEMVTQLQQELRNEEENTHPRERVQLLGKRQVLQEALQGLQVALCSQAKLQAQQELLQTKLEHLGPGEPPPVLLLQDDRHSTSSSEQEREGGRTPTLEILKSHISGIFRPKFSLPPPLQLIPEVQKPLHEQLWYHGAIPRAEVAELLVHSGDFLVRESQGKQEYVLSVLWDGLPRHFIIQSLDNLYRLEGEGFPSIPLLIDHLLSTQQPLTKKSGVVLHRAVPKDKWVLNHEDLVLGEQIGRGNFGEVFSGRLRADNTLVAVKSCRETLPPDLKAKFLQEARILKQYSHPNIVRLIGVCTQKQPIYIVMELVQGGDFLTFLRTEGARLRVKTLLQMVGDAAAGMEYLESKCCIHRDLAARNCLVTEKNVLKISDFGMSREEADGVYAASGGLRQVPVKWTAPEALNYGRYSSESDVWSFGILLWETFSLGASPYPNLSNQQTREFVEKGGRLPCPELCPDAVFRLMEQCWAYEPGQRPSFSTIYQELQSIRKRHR

| Sequence | phosphorylation enrichment |
| --- | --- |
| VVLEDYLDIKN [CLCNKB_Y138] | 1.2 |
| SPPPAFTPMSG [ERBB4_Y1056_Y1056F] | 0.441 |
| HSDYQYSQRSQ [PKP2_Y168] | 0.587 |
| VRQQVYKKVEE [HADHA_Y283] | 0.716 |
| FPHVIYARLWR [SMAD4_Y95] | 0.85 |
| HVSISYDIPLT [GAB1_Y307_P311L] | 2.15 |
| RELGEYPLAEY [ALDH1A3_Y492_A493P] | 1.41 |
| RLAQRYLIWEC [SCN5A_Y694] | 1.66 |
| EPFEVYRIVPE [IRF8_Y110_K108E_YF] | 1.03 |
| SFNNKYGMVAQ [APOB_Y276_K273N_YF] | 0.51 |
| QGCSIYKDYYR [PLA2G2D_Y82] | 1.47 |
| TTPGPYRSIYF [MPG_Y71] | 1 |
| PYRQWYESHYA [RPS8_Y113] | 1.69 |
| GMTRNYIIFIE [BCO2_Y294] | 0.921 |
| IKIMGSSIRTI [IDS_Y490_Y490S] | 0.53 |
| IKRIDYEFVEM [ADA_Y84_A83D] | 1.18 |
| LTNDRYVATLT [IL6ST_Y396_L397V] | 0.791 |

| Sequence | phosphorylation enrichment |
| --- | --- |
| GTCGGYCSVLG [RAB18_Y202_A198T] | 0.488 |
| VRFVDYVLFRS [FAM189B_Y361_S358F] | 1.1 |
| MALDRYVAICK [OR2B11_Y127] | 0.838 |
| MTKEQYIKMNQ [ARFGEF2_Y797_R802Q] | 0.805 |
| NIFSFYLSRDP [CTSD_Y232] | 1.14 |
| FGTAQYCCRMG [LRRK2_Y2023_I2020T_YF] | 0.693 |
| KKHFSYAWPFY [BRDT_Y291] | 0.965 |
| DGTGHYLGNAC [GATA5_Y208_C210G] | 0.727 |
| LSSNLYYRWLT [CNGA3_Y168_P163L] | 3.38 |
| MCDSHYLESRS [CLK1_Y56] | 0.81 |
| GGQEDYDRLRP [RAC3_Y64_A59G] | 0.948 |
| ECKASCPGKIT [PRSS3_Y232_Y232C] | 0.536 |
| LLKMMYLMLDN [STAT1_Y203_K201M] | 1.51 |
| NHFKIYNPCAE [PTEN_Y68_L70P_YF] | 0.996 |
| IKKFKYRIEEH [GJA1_Y137_G138R] | 0.83 |
| GRFSGYKSKHG [EPHA3_Y570_C568S] | 0.438 |

biological target: Fyn (UniProt P06241); assay: as above
Sequence (P06241 whole entry, looked up): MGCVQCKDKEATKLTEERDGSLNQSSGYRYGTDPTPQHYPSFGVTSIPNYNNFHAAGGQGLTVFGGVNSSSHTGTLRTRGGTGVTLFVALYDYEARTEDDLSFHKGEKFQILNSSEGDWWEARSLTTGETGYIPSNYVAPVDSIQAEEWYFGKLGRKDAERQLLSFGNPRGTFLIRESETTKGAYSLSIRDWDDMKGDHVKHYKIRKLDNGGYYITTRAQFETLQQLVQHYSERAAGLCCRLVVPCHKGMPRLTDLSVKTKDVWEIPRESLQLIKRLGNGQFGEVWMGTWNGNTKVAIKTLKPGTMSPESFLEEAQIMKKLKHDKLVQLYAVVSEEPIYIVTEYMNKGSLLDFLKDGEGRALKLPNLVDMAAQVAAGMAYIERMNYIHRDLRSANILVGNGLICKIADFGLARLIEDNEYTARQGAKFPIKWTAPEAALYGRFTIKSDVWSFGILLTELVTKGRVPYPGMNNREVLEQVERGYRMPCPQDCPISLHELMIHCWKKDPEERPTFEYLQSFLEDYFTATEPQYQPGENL

| Sequence | phosphorylation enrichment |
| --- | --- |
| VVLEDYLDIKN [CLCNKB_Y138] | 0.534 |
| SPPPAFTPMSG [ERBB4_Y1056_Y1056F] | 0.305 |
| HSDYQYSQRSQ [PKP2_Y168] | 0.39 |
| VRQQVYKKVEE [HADHA_Y283] | 0.44 |
| FPHVIYARLWR [SMAD4_Y95] | 5.08 |
| HVSISYDIPLT [GAB1_Y307_P311L] | 1.31 |
| RELGEYPLAEY [ALDH1A3_Y492_A493P] | 0.582 |
| RLAQRYLIWEC [SCN5A_Y694] | 0.595 |
| EPFEVYRIVPE [IRF8_Y110_K108E_YF] | 3.41 |
| SFNNKYGMVAQ [APOB_Y276_K273N_YF] | 0.395 |
| QGCSIYKDYYR [PLA2G2D_Y82] | 3.56 |
| TTPGPYRSIYF [MPG_Y71] | 0.641 |
| PYRQWYESHYA [RPS8_Y113] | 1.09 |
| GMTRNYIIFIE [BCO2_Y294] | 0.567 |
| IKIMGSSIRTI [IDS_Y490_Y490S] | 0.411 |
| IKRIDYEFVEM [ADA_Y84_A83D] | 0.469 |
| LTNDRYVATLT [IL6ST_Y396_L397V] | 0.576 |

| Sequence | phosphorylation enrichment |
| --- | --- |
| GTCGGYCSVLG [RAB18_Y202_A198T] | 0.397 |
| VRFVDYVLFRS [FAM189B_Y361_S358F] | 0.542 |
| MALDRYVAICK [OR2B11_Y127] | 0.464 |
| MTKEQYIKMNQ [ARFGEF2_Y797_R802Q] | 0.347 |
| NIFSFYLSRDP [CTSD_Y232] | 0.4 |
| FGTAQYCCRMG [LRRK2_Y2023_I2020T_YF] | 0.463 |
| KKHFSYAWPFY [BRDT_Y291] | 0.456 |
| DGTGHYLGNAC [GATA5_Y208_C210G] | 0.347 |
| LSSNLYYRWLT [CNGA3_Y168_P163L] | 6.81 |
| MCDSHYLESRS [CLK1_Y56] | 0.449 |
| GGQEDYDRLRP [RAC3_Y64_A59G] | 0.458 |
| ECKASCPGKIT [PRSS3_Y232_Y232C] | 0.401 |
| LLKMMYLMLDN [STAT1_Y203_K201M] | 0.584 |
| NHFKIYNPCAE [PTEN_Y68_L70P_YF] | 0.564 |
| IKKFKYRIEEH [GJA1_Y137_G138R] | 0.398 |
| GRFSGYKSKHG [EPHA3_Y570_C568S] | 0.407 |
